# Measurements taken from US20220291215A1.
# Read-outs that look alike come from different tables or passages of the source.
# Key:
# [1] = target: memory CD4+ T cells from DR1+ donors, unstimulated (a small subset; their TCRs)
# [2] = target: memory CD4+ T cells from DR1+ donors, unstimulated (a small subset; their TCRs); remark: listed apart in the source
# DR1-restricted TCR HA1.7 [3] = target: DR1-restricted TCR HA1.7
# DR1-restricted TCR HA1.7 [4] = test: flow cytometry, TCR-transduced primary T cells
# DR1-restricted TCR HA1.7 [5] = target: DR1-restricted TCR HA1.7; remark: listed apart in the source
# Transduced TCR: None [6] = target: Transduced TCR: None
# [7] = target: memory CD4+ T cells from DR1+ donors, unstimulated (a small subset; their TCRs); remark: listed apart in the source
# [8] = target: memory CD4+ T cells from DR1+ donors, unstimulated (a small subset; their TCRs); remark: listed apart in the source
# [9] = target: memory CD4+ T cells from DR1+ donors, unstimulated (a small subset; their TCRs); remark: listed apart in the source
# [10] = target: memory CD4+ T cells from DR1+ donors, unstimulated (a small subset; their TCRs); remark: listed apart in the source
# Transduced TCR: None [11] = target: Transduced TCR: None; remark: listed apart in the source
# Transduced TCR: None [12] = target: Transduced TCR: None; remark: listed apart in the source
# DR1-restricted TCR HA1.7 [13] = target: DR1-restricted TCR HA1.7; remark: listed apart in the source
# [14] = target: memory CD4+ T cells from DR1+ donors, unstimulated (a small subset; their TCRs); remark: listed apart in the source
# [15] = target: memory CD4+ T cells from DR1+ donors, unstimulated (a small subset; their TCRs); remark: listed apart in the source
# [16] = target: memory CD4+ T cells from DR1+ donors, unstimulated (a small subset; their TCRs); remark: listed apart in the source
# Transduced TCR: None [17] = target: Transduced TCR: None; remark: listed apart in the source
# DR1-restricted TCR HA1.7 [18] = target: DR1-restricted TCR HA1.7; remark: listed apart in the source
substance,measurement,setting,value
"Flu-HA5-24, DR1^L114W/V143M+2reps dimer (PE) (peptide-MHC)",events in the dimer+ CD4+ gate,[1],2 evts
same,events in the dimer+ CD4+ gate,[2],1 evts
DR1^L114W/V143M+2reps dimer loaded with Flu-HA306-318 (peptide-MHC),percent multimer-positive CD4+ cells (number at the gate),DR1-restricted TCR HA1.7 [3],53%
same,% dimer+ CD4+ cells,DR1-restricted TCR HA1.7 [4],9.1%
same,percent multimer-positive CD4+ cells (number at the gate),DR1-restricted TCR HA1.7 [5],48.9%
same,percent multimer-positive CD4+ cells (number at the gate),Transduced TCR: None [6],0%
same,events in the dimer+ CD4+ gate,[7],53 evts
same,events in the dimer+ CD4+ gate,[8],18 evts
DR1^L114W/V143M+2reps dimer loaded with Flu-HA117-136 (peptide-MHC),events in the dimer+ CD4+ gate,[9],10 evts
same,events in the dimer+ CD4+ gate,[10],74 evts
wild-type DR1 dimer loaded with Flu-HA306-318 (from UniProt P01911 30-227) (peptide-MHC),percent multimer-positive CD4+ cells (number at the gate),Transduced TCR: None [11],0.1%
DR1^L114W/V143M+6reps dimer loaded with Flu-HA306-318 (peptide-MHC),percent multimer-positive CD4+ cells (number at the gate),Transduced TCR: None [12],0.1%
same,percent multimer-positive CD4+ cells (number at the gate),DR1-restricted TCR HA1.7 [13],48.2%
"Flu-HA232-251, DR1^L114W/V143M+2reps dimer (PE) (peptide-MHC)",events in the dimer+ CD4+ gate,[14],0 evts
"Flu-HA268-287, DR1^L114W/V143M+2reps dimer (PE) (peptide-MHC)",events in the dimer+ CD4+ gate,[15],0 evts
same,events in the dimer+ CD4+ gate,[16],2 evts
DR1^L114W/V143M dimer loaded with Flu-HA306-318 (peptide-MHC),percent multimer-positive CD4+ cells (number at the gate),Transduced TCR: None [17],0%
same,percent multimer-positive CD4+ cells (number at the gate),DR1-restricted TCR HA1.7 [18],1.5%
